Laboratory results from US20230295310A1 (ABCELLERA BIOLOGICS, published 2023).
Numbering of substitutions follows the chain as printed.

B1: GOMP001_bsAb_018 (bispecific antibody, human IgG1, kappa, L234A L235A)
heavy 1: EVQLVESGGDLVQPGRSLRLSCAASGFTFDDCVIHWVRKAPGKGLEWVSGITWNSGRIGYADEVKGRFTISRDNAKNSLYLQMNSLRVEDTALYYCAKEGNYDFWSTYYRGYFDLWGRGTLVTVSSASTKGPSVFPLAPSSKSTSGGTAALGCLVADYFPEPVTVSWNSGALTSGVHTFPAVLQSSGLYSLSSVVTVPSSSLGTQTYICNVNHKPSNTKVDEKVEPKSCDKTHTCPPCPAPEAAGGPSVFLFPPKPKDTLMISRTPEVTCVVVDVSHEDPEVKFNWYVDGVEVHNAKTKPREEQYNSTYRVVSVLTVLHQDWLNGKEYKCKVSNKALPAPIEKTISKAKGQPREPQVYTLPPSREEMTDNQVSLTCLVKGFYPSDIAVEWESNGQPENNYKTTPPVLMSDGSFFLASKLTVDKSRWQQGNVFSCSVMHEALHNHYTQKSLSLSPG
light 1: RIQMTQSPSSLSASVGDRVTITCRASQGIRNDLGWYQDKPGIAPKRLIYAASSLQGGVPLRFSGSGSGTEFTLTISSLQPEDFATYYCLQHNSYPYTFGQGTKLEIKRTVAAPSVFIFPPSDKQLKSGTARVVCLLNNFYPREAKVQWKVDNALQSGNSQESVTEQDSKDSTYSLSSTLTLSKADYEKHKVYACEVTHQGLSSPVTKSFNRGEC
heavy 2: QVQLVQSGAEVKKPGASVKVSCKASGYTFTSHWMHWVRYAPGQGLEWIGEFNPSNGRTNYNEKFKSKATMTVDTSTNTAYMELSSLRSEDTAVYYCASRDYDYDGRYFDYWGRGTLVTVSSASTKGPSVFPLAPSSKSTSGGTAALGCLVKDYFPEPVTVSWNSGALTSGVHTFPAVLQSSGLYSLSSVVTVPSSSLGTQTYICNVNHKPSNTKVDKKVEPKSCDKTHTCPPCPAPEAAGGPSVFLFPPKPKDTLMISRTPEVTCVVVDVSHEDPEVKFNWYVDGVEVHNAKTKPREEQYNSTYRVVSVLTVLHQDWLNGKEYKCKVSNKALPAPIEKTISKAKGQPRRPRVYTLPPSREEMTKNQVSLVCLVKGFYPSDIAVEWESNGQPENNYKTTPPVLDSDGSFFLYSVLTVDKSRWQQGNVFSCSVMHEALHNHYTQKSLSLSPG
light 2: DIQMTQSPSSLSASVGDRVTITCSASSSVTYMYWYQRKPGDAPKLLIYDTSNLASGVPSRFSGSGSGTDYTFTISSLQPEDIATYYCQQWSSHIFTFGQGTKVEIKRTVAAPSVFIFPPSDEQLKSGTASVVCLLNNFYPREAKVQWKVDNALQSGNSQESVTEQDSKDSTYSLSSTLTLSKADYEKHKVYACEVTHQGLSSPVTKSFNRGEC
B2: GOMP001_bsAb_022 (bispecific antibody, human IgG1, kappa, L234A L235A)
heavy 1: QMLLVESGGGVVQPGRSLTLSCAASGFTFRSYGMHWVRKAPGRGLEWVAIIWYDGSTEYYADEVKGRFTISRANSKNMLYLQMNSLRAEDTAVYYCAAFDYTNSFDIWGQGTMVTVSSASTKGPSVFPLAPSSKSTSGGTAALGCLVADYFPEPVTVSWNSGALTSGVHTFPAVLQSSGLYSLSSVVTVPSSSLGTQTYICNVNHKPSNTKVDEKVEPKSCDKTHTCPPCPAPEAAGGPSVFLFPPKPKDTLMISRTPEVTCVVVDVSHEDPEVKFNWYVDGVEVHNAKTKPREEQYNSTYRVVSVLTVLHQDWLNGKEYKCKVSNKALPAPIEKTISKAKGQPREPQVYTLPPSREEMTDNQVSLTCLVKGFYPSDIAVEWESNGQPENNYKTTPPVLMSDGSFFLASKLTVDKSRWQQGNVFSCSVMHEALHNHYTQKSLSLSPG
light 1: RIVVTQTPLSSPVTLGQPASISCRSSQRFVHSDGNTYLSWLQDRPGQPPRLLIYKISNRISGVPDRFSGSGAGTDFKLKISRVEAEDVGIYYCMQATQFPYTFGQGTKLEIKRTVAAPSVFIFPPSDKQLKSGTARVVCLLNNFYPREAKVQWKVDNALQSGNSQESVTEQDSKDSTYSLSSTLTLSKADYEKHKVYACEVTHQGLSSPVTKSFNRGEC
heavy 2: B1 heavy 2
light 2: B1 light 2
B3: GOMP001_bsAb_021 (bispecific antibody, human IgG1, kappa, L234A L235A)
heavy 1: QVQLVQSGAEVKKPGASVKVSCKASGYTFTSHWMHWVRKAPGQGLEWIGEFNPSNGRTNYNEEFKSKATMTVDTSTNTAYMELSSLRSEDTAVYYCASRDYDYDGRYFDYWGQGTLVTVSSASTKGPSVFPLAPSSKSTSGGTAALGCLVADYFPEPVTVSWNSGALTSGVHTFPAVLQSSGLYSLSSVVTVPSSSLGTQTYICNVNHKPSNTKVDEKVEPKSCDKTHTCPPCPAPEAAGGPSVFLFPPKPKDTLMISRTPEVTCVVVDVSHEDPEVKFNWYVDGVEVHNAKTKPREEQYNSTYRVVSVLTVLHQDWLNGKEYKCKVSNKALPAPIEKTISKAKGQPREPQVYTLPPSREEMTDNQVSLTCLVKGFYPSDIAVEWESNGQPENNYKTTPPVLMSDGSFFLASKLTVDKSRWQQGNVFSCSVMHEALHNHYTQKSLSLSPG
light 1: B1 light 2 with D1R, R37D, D41K, E122K, S130R
heavy 2: QMLLVESGGGVVQPGRSLTLSCAASGFTFRSYGMHWVRYAPGRGLEWVAIIWYDGSTEYYADRVKGRFTISRANSKNMLYLQMNSLRAEDTAVYYCAAFDYTNSFDIWGRGTMVTVSSASTKGPSVFPLAPSSKSTSGGTAALGCLVKDYFPEPVTVSWNSGALTSGVHTFPAVLQSSGLYSLSSVVTVPSSSLGTQTYICNVNHKPSNTKVDKKVEPKSCDKTHTCPPCPAPEAAGGPSVFLFPPKPKDTLMISRTPEVTCVVVDVSHEDPEVKFNWYVDGVEVHNAKTKPREEQYNSTYRVVSVLTVLHQDWLNGKEYKCKVSNKALPAPIEKTISKAKGQPRRPRVYTLPPSREEMTKNQVSLVCLVKGFYPSDIAVEWESNGQPENNYKTTPPVLDSDGSFFLYSVLTVDKSRWQQGNVFSCSVMHEALHNHYTQKSLSLSPG
light 2: B2 light 1 with R1D, D43R, Q47D, K128E, R136S
B4: GOMP001_bsAb_019 (bispecific antibody, human IgG1, kappa, L234A L235A)
heavy 1: B3 heavy 1
light 1: B1 light 2 with D1R, R37D, D41K, E122K, S130R
heavy 2: EVQLVDSGGGLVQPGGSLRLSCSGSGFTFSSYWMSWVRYAPGKGLEWVANIKQDGSQKYYVDRVKGRFTISRDNVKNSLYLQMNSLRVEDTAVYYCARDESSSWYWYFDLWGRGTLVTVSSASTKGPSVFPLAPSSKSTSGGTAALGCLVKDYFPEPVTVSWNSGALTSGVHTFPAVLQSSGLYSLSSVVTVPSSSLGTQTYICNVNHKPSNTKVDKKVEPKSCDKTHTCPPCPAPEAAGGPSVFLFPPKPKDTLMISRTPEVTCVVVDVSHEDPEVKFNWYVDGVEVHNAKTKPREEQYNSTYRVVSVLTVLHQDWLNGKEYKCKVSNKALPAPIEKTISKAKGQPRRPRVYTLPPSREEMTKNQVSLVCLVKGFYPSDIAVEWESNGQPENNYKTTPPVLDSDGSFFLYSVLTVDKSRWQQGNVFSCSVMHEALHNHYTQKSLSLSPG
light 2: DIQMTQSPSTLSASVGDRVTLTCRASQNIVKWLAWYQRKPGDAPKLLIYKASSLESGVPSWFSGSGSGTEFTLTINSLQPDDFATYYCQQYYTYSRTFGQGTKVEIKRTVAAPSVFIFPPSDEQLKSGTASVVCLLNNFYPREAKVQWKVDNALQSGNSQESVTEQDSKDSTYSLSSTLTLSKADYEKHKVYACEVTHQGLSSPVTKSFNRGEC
B5: GOMP001_bsAb_020 (bispecific antibody, human IgG1, kappa, L234A L235A)
heavy 1: EVQLVDSGGGLVQPGGSLRLSCSGSGFTFSSYWMSWVRKAPGKGLEWVANIKQDGSQKYYVDEVKGRFTISRDNVKNSLYLQMNSLRVEDTAVYYCARDESSSWYWYFDLWGRGTLVTVSSASTKGPSVFPLAPSSKSTSGGTAALGCLVADYFPEPVTVSWNSGALTSGVHTFPAVLQSSGLYSLSSVVTVPSSSLGTQTYICNVNHKPSNTKVDEKVEPKSCDKTHTCPPCPAPEAAGGPSVFLFPPKPKDTLMISRTPEVTCVVVDVSHEDPEVKFNWYVDGVEVHNAKTKPREEQYNSTYRVVSVLTVLHQDWLNGKEYKCKVSNKALPAPIEKTISKAKGQPREPQVYTLPPSREEMTDNQVSLTCLVKGFYPSDIAVEWESNGQPENNYKTTPPVLMSDGSFFLASKLTVDKSRWQQGNVFSCSVMHEALHNHYTQKSLSLSPG
light 1: B4 light 2 with D1R, R38D, D42K, E123K, S131R
heavy 2: B1 heavy 2
light 2: B1 light 2

Biological target: EGFR on HeLa cells (UniProt P00533 25-1210, limits assumed)
Experiment: cell-based or functional assay

Binder | Max killing % [%] | X… HeLa EC50 [pM]
B1 | 97.3 | 111
B2 | 60.6 | 478
B3 | 25.4 | –
B4 | 48.3 | –
B5 | 79.6 | 102
